Experimental data: patent publication US5294543

Target: fibrinogen receptor on platelets (Homo sapiens (Human)) (UniProt P08514)

IC50 of inhibition of platelet aggregation induced by 5 µM ADP: 16 nM
Substance: chrysoptin
